Experiment [1] addresses S8,15,44,55D NDC80 "Bonsai"-GFP complex. As to the kind of experiment: FRAP.
Experiment [2] deals with Taxol-stabilized microtubules (polymerized cow brain tubulin) (cow) (UniProt Q2HJ86). As to the kind of experiment: FRAP.
Experiment [3] has as its target S8,15,44,55D NDC80 "Bonsai"-GFP complex. As to the kind of experiment: TIRF-based MT-binding assay.
Experiment [4] has as its target Taxol-stabilized microtubules (polymerized cow brain tubulin) (cow) (UniProt Q2HJ86). As to the kind of experiment: TIRF-based MT-binding assay.
Experiment [5] addresses S15D NDC80 "Bonsai"-GFP complex. As to the kind of experiment: TIRF-based MT-binding assay.
Experiment [6] has the same target. As to the kind of experiment: TIRF-based MT-binding assay. The source holds these as a separate data set.
Experiment [7] addresses noD NDC80 "Bonsai"-GFP complex (wild-type Hec1 tail). As to the kind of experiment: FRAP.
The target in experiment [8] is Taxol-stabilized microtubules (polymerized cow brain tubulin) (cow) (UniProt Q2HJ86). As to the kind of experiment: single-molecule TIRF microscopy.
The target in experiment [9] is noD NDC80 "Bonsai"-GFP complex (wild-type Hec1 tail). As to the kind of experiment: TIRF-based MT-binding assay.

The results in this text go back to publication PMC4436829.

Read-outs that look alike come from different tables or passages of the source.

As a reminder, the Kd is the free concentration of one partner at which half of the binding sites on the other are occupied at equilibrium, for simple one-to-one binding. Lower therefore signals higher affinity.

UniProt Q2HJ86, sequence (Q2HJ86 8-447, chain 1 of 2): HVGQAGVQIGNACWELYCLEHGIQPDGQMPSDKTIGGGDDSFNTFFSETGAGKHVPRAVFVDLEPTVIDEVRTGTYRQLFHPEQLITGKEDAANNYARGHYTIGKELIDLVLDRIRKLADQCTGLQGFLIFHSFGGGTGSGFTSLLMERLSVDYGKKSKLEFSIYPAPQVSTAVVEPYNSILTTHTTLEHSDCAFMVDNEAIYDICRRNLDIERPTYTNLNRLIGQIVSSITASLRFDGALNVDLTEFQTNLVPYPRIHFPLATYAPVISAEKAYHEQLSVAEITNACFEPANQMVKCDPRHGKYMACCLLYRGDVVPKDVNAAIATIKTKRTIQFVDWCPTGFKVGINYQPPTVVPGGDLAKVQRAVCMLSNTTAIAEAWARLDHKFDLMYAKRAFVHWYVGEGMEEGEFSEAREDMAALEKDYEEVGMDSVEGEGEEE
UniProt Q2HJ86, sequence (Q6B856 1-439, chain 2 of 2, further chain): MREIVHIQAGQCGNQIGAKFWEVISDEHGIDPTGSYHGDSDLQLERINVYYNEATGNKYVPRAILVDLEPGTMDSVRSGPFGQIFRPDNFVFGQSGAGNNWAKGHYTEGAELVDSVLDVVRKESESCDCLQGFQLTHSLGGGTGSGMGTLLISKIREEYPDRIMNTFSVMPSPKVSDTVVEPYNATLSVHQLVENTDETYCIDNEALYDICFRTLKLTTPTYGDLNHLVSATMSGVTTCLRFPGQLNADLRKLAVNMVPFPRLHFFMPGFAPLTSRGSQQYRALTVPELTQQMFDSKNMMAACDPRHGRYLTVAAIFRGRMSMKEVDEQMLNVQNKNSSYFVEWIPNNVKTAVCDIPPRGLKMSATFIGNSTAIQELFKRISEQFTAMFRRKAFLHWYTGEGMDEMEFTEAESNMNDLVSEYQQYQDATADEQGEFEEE

For the substance S8,15,44,55D NDC80 "Bonsai"-GFP complex, in experiment [1], the cooperativity parameter (ω) amounted to 2.4. This substance also showed an FRAP recovery time in experiment [2] of 0.084 s. Besides, the cooperativity parameter (ω) in [3] was found to be 2.6. In [4], the Kd is 1920 nM and the stoichiometry N (molecules per tubulin dimer) was 1.9.

S15D NDC80 "Bonsai"-GFP complex: the cooperativity parameter (ω) in experiment [5] stood at 2. In [4], this substance registered a Kd of 710 nM and a stoichiometry N (molecules per tubulin dimer) of 1.9. This substance also yielded a cooperativity parameter (ω) in experiment [6] of 3.

Consider “noD NDC80 "Bonsai"-GFP complex (wild-type Hec1 tail)”, for which, in experiment [2], the FRAP recovery time was 0.29 s. Besides, the cooperativity parameter (ω) in experiment [7] was determined as 2; in experiment [9], 3.33. Moreover, the Kd in [8] stood at 640 nM; in experiment [4], 530 nM. Besides, the residency time (τ = 1/koff) in [8] worked out at 417 ms. Further, the stoichiometry N (molecules per tubulin dimer) in [4] is 1.9.
